Laboratory results taken from the DeepSol protein solubility set.

Experiment: soluble on expression in E. coli; label from the status in PepcDB or PDB records

| Sequence | soluble on expression in E. coli |
| --- | --- |
| MSLSDDTIDRFFGYLNWLFNPFHGLKTTEVYDLIGTSSLTENALYLNLGYWRKADTIDEASEALALLVAKRGGMGPGDIVLDCGYGFGDQDILWARQLKPEKIIGLNITSSQVERARKRVADAGLEQSIDLREGSATAMPIENESIDLVVSVESAFHYRTREAFFREAFRVLRPGGRLVTADIVPTENSGNPFRRMEQWFSWNLVAGKFNIPQENYYLIPSYQNKLTKAGFVQIDIKSIRDDVYEPLHAYLAKNRTFFAKMHPLARIMAQLTLNRSAESVYAGLDYILSYAEKEGHHHHHH | soluble |
| MGHHHHHHSHMNKHQKPVLTGQRFKTRKRDEKEKFEPTVFRDTLVQGLNEAGDDLEAVAKFLDSTGSRLDYRRYADTLFDILVAGSMLAPGGTRIDDGDKTKMTNHCVFSANEDHETIRNYAQVFNKLIRRYKYLEKAFEDEMKKLLLFLKAFSETEQTKLAMLSGILLGNGTLPATILTSLFTDSLVKEGNEAPVFSPVRQQKKNKVTDS | not soluble |
| MSCFVTVGSTLFEDLINQVLCEASLENLKKIGVKKIRLQIGKGNFNQDVIDRVFGETSGDEGSVKCDGLDIDYYRYKPSLSEDMAEALIVIGHGGAGTCLEVLALHLPFITVTNDKLMDNHQAELAVQLSDEGYLLQCTPSTLPETILKENLFSLRQFAAPSKKFVAEHIKQLVGIKNH | not soluble |
| MGSDKIHHHHHHMNLKTTLGLLAGRSSHFVLSRLGRGSTLPGKVALQFDKDILQNLAKNYEIVVVTGTNGKTLTTALTVGILKEVYGQVLTNPSGANMITGIATTFLTAKSSKTGKNIAVLEIDEASLSRICDYIQPSLFVITNIFRDQMDRFGEIYTTYNMILDAIRKVPTATVLLNGDSPLFYKPTIPNPIEYFGFDLEKGPAQLAHYNTEGILCPDCQGILKYEHNTYANLGAYICEGCGCKRPDLDYRLTKLVELTNNRSRFVIDGQEYGIQIGGLYNIYNALAAVAIARFLGADSQLIKQGFDKSRAVFGRQETFHIGDKECTLVLIKNPVGATQAIEMIKLAPYPFSLSVLLNANYADGIDTSWIWDADFEQITDMDIPEINAGGVRHSEIARRLRVTGYPAEKITETSNLEQVLKTIENQDCKHAYILATYTAMLEFRELLASRQIVRKEMN | not soluble |
| GMGRILREGAGWRLGWDETAHRYPGLVGTTDWAVELTAAEMADFCRLVQQLAETIAAIAPELMPEERLQIEAESALLWLEAEGFADAYELRLILASDRRVEACWPAAAVPALVAATHTLKGF | soluble |
| MGSDKIHHHHHHMNGLFVLAYAITNLHPGAGRGYGIVDMPVQRDQMGYPIIYSSAFKGPLKALCAGDAINDHGRIDCKKKGECCCLFGSEPEEEESSKGMLNVMDLPLFSVPAPTFDGFVQVTTNYLIDRARNIFEAISHINGYLGSLGNEIKALLDAQGNKSVEVYDTEAKVVNFDPSSFKLLSSLPLFNNRLAISDDKRVIDKSLIIYTRNRLNLLTKVVEEGGLWSEEYIPMGSIFIGGMIIDNVRNKFCDELSKISCDSRLFLHHFSRIFNADKISEDVYLFYLNIGGKESIGKGLMKVFIGV | not soluble |
| MRQHAAPCTQLITWSIEMDNALDFLLEQAQESEDKAVLALSKARSELDSYYHQLRQIEQYRLEYCQQLVERGKSGLTASQYGHLNRFLTQLDETLAKQKSAEQHFRLQVENCEQHWMNMRQKRKSYQWLMEKKQTERQLLQEKREQKQMDEFSTLMFNRRRLSS | not soluble |
| MGSDKIHHHHHHMEMNDTRRRLIELIAEHHASHPGKKLGIEELSRRAGISRQSFNRYYKDLTDYAAGRKLIGDLVDDTTNAQTKQLINQQQEVMRDLQEQVEHSEIENAKKLKKAMDSYVTSLMVNDLTAHAANSLRITLEKQTVHNLQLKQELTNMEVSLAKAQANAATLAISPTPREGKGEKVKLDVDLSKAVAAFSATKSEDDFEDKKEIALKSLVQSICKLALESKCSIVLFAERYVSRFSSFYDNFSCPDDGLHIIARLPVFYRSELRTFIDKLPPTQNISLYIPYLESASEKKAQRSFYFNSIPKCELDSADEADVIPMTLGLDRIIQFRVKQGD | not soluble |
| MITLTGHTLTIEEMKRLLLEGEGVTACPTSMQKVAECREVVEKIVENGKVVYGITTGFGKFSDVLIQKDDVKALQHNLIQSHACGIGDPFPEEVSRGMLILRANTMLKGVSGVRPLVVNMLLEFVNRKIHPVVPQQGSLGASGDLAPLSHLALILLGEGEVFYKGKRVHAMVALTEEGLEPIELEAKEGLALINGTQAMTAQGVLSYIEAEATAYQAELIASMTIEGLQGIIDAFDENVHKARGYKEQVEVASRIRDILHDSKLTTKQGELRVQDAYSLRCIPQVHGASWQVLNYVKEKLEIEMNAATDNPLIFDGGEKVISGGNFHGQPIAFAMDFLKVGMAELANISERRIERLVNPQLNDLPPFLSPEPGLQSGAMIMQYAAASLVSENKTLAHPASVDSIPSSANQEDHVSMGTIASRHAHQIIQNVRRVLSIEMICAMQAAEYRGIENMSTVTKSFYHQGRQQVPSITNDRIFSTDIENITHWLKTNYSIKERLDVNAAL | not soluble |
| MMNVPEGFQPLFRSSPLLDLLGPFFCRQDAQRQLVVALRIDEKHCNHGGTAHGGLLSTLADVGLGYAMAFSREPPQPMVTVGLRLDFCGVARVGDWLEVHTRVDKLGQRMAFASARLHSGERLVASASGVFHLP | not soluble |
| MKAINIALDGPAAAGKSTIAKRVASELSMIYVDTGAMYRALTYKYLKLNKTEDFAKLVDQTTLDLTYKADKGQCVILDNEDVTDFLRNNDVTQHVSYVASKEPVRSFAVKKQKELAAEKGIVMDGRDIGTVVLPDADLKVYMIASVEERAERRYKDNQLRGIESNFEDLKRDIEARDQYDMNREISPLRKADDAVTLDTTGKSIEEVTDEILAMVSQIK | soluble |
| MGSDKIHHHHHHLGKFSHIAIAFIDVVMESDHAGLELIRWIREELHNKTIRLILRTGQPGQAPEEDVIVNYDINDYKAKSELDSRKLMTSVYSALRSYRDIMEIEQARRAQLSHRMGLERVLEATAGLFELRTLHKFADGLLTQVATLLNLDNETLLLSCNAMDAISGHVDCAGIEILAGTGQFANSSAKTILPERIDKLLRSALAQKRCLYEDNYFVGYFPTKSGLINLLYMDGINKIDDLDKKLIDIFAINVGIAFENLLLNQEVEDTQSELILRLGDVVESRSKEAANHVKRMAEYCAQLALLAGLNEYDADLLRRASPMHDIGKIAIPDAVLLKPGKLNDDEWQIMRQHPNIGHQILANSERPILKAASIIALQHHEKYDGSGYPSNLKQDEIHIFARIVAIADVFDALSHTRCWLFLPIPQKCKISDRLAQKHTVNWSLYRRIP | not soluble |
| MGSDKIHHHHHHMDKQLWEKAVAFHGHECPGLAIGFRACEAVQEKMGLKFSQDEEVVCVTENDACGADAVQVITGCSFGKGNLIYRGTGKMAFSFFSRNTGESMRIVLKPSSSEMDRQERQNYILTAPMDDVFEFKKPGFTLPKQARLFKTVICEVCGEGAPEHKMRLQEGKKVCLDCFEDYSRGY | not soluble |
| CTRAVYIGPDHMVVTGRTMDWKEDIMSNIYVFPRGIQRAGYNKENAVKWTSKYGSVIATGYDIGTCDGMNEKGLVASLLFLPESVFDRPGDTRPVMGISIWTQYVLDNFATVHEAVEELKKESFRIDAPHMPNGSASTLHLAITDETGNTAVLEYLDGNLSIHEGKEFQVMTNSPRYDYQLAINDYWKEVGGLQMLPGTNRSSDRFVRASFYIHAIPQTPDAKIAVPSVLSVMRNVSVPFGITTPDKPHISSTRWRSVSDQKNKIYYFESVMTPNLFWLDLKKIDFSPKAGIKKLPLTNGKIY | not soluble |
| MSLGSEGTSAKISISAIQVNANNPIEDRLLIQRMRLNLPGGENKDFVISAVIDGHGGWQVAEYVQNNFIRIFQKELSQYMSSLVREGSANESNPISQINETDIIAGLFYSLKKTYYILDEELKSKLEVAYNLGFSKLASVGACTTVSIITEDAILTANSGDCLSVYCNENGIWLPLNEQLSAMNPQEQKRLEEIHKHEKDNLIQCKQILHEKFLMGLYTIPKYRGCYVKGILQPSRAIGDFRLKSMDFNYNWEKDLSTEKLLPTFSYVLKDKESEQSKKEQHRENEDLNEDEFPYSYDLINGNNSINMRRDSYRYFVKNPLSFPYVRSEPMLHLFFYNSLNKNLSSTDNTSVEKISPNEYSEGHHHHHH | soluble |
| MDLLKKEYTGITYISGPLLFVENAKDLAYGAIVDIKDGTGRVRGGQVIEVSEEYAVIQVFEETTGLDLATTSVSLVEDVARLGVSKEMLGRRFNGIGKPIDGLPPITPEKRLPITGLPLNPVARRKPEQFIQTGISTIDVMNTLVRGQKLPIFSGSGLPANEIAAQIARQATVRPDLSGEGEKEEPFAVVFAAMGITQRELSYFIQEFERTGALSRSVLFLNKADDPTIERILTPRMALTVAEYLAFEHDYHVLVILTDMTNYCEALREIGAAREEIPGRRGYPGYMYTDLATIYERAGVVEGKKGSVTQIPILSMPDDDRTHPIPDLTGYITEGQIQLSRELHRKGIYPPIDPLPSLSRLMNNGVGKGKTREDHKQVSDQLYSAYANGVDIRKLVAIIGEDALTENDRRYLQFADAFERFFINQGQQNRSIEESLQIAWALLSMLPQGELKRISKDHIGKYYGQKLEEIWGAPQALD | soluble |
| MAHHHHHHMTEPVRILVRRDEITVDSIMQYFVAVDEEKNKFETLCDLYDTLTIAHAVIFCNTRKKVEQLAKKMRKEKFSVSCMHGDMPQAERDEIMRNFREGKSRVLISTDLWSRGIDVEQVSLVLNYDLPFSREQYIHRIGRTGRMGRKGLAISFVKHDELRLLRDVEQFYATQIEELPANIADQF | not soluble |
| MDSEEPPNVRVACSGDIDEVVRLMHDAAAWMSAKGTPAWDVARIDRTFAETFVLRSELLVASCSDGIVGCCTLSAEDPEFWPDALKGEAAYLHKLAVRRTHAGRGVSSALIEACRHAARTQGCAKLRLDCHPNLRGLYERLGFTHVDTFNPGWDPTFIAERLELEI | not soluble |
| MKKVLIANRGEIAVRIIRACRDLGIQTVAIYSEGDKDALHTQIADEAYCVGPTLSKDSYLNIPNILSIATSTGCDGVHPGYGFLAENADFAELCEACQLKFIGPSYQSIQKMGIKDVAKAEMIKANVPVVPGSDGLMKDVSEAKKIAKKIGYPVIIKATAGGGGKGIRVARDEKELETGFRMTEQEAQTAFGNGGLYMEKFIENFRHIEIQIVGDSYGNVIHLGERDCTIQRRMQKLVEEAPSPILDDETRREMGNAAVRAAKAVNYENAGTIEFIYDLNDNKFYFMEMNTRIQVEHPVTEMVTGIDLVKLQLQVAMGDVLPYKQEDIKLTGHAIEFRINAENPYKNFMPSPGKIEQYLAPGGYGVRIESACYTNYTIPPYYDSMVAKLIIHEPTRDEAIMAGIRALSEFVVLGIDTTIPFHIKLLNNDIFRSGKFNTNFLEQNSIMNDEG | soluble |
| MFTGIINHCGEIRSMEALPDHTVLSIDTQFSDLQLGESIAIDGICVTVTQKKLGSFSCDLSPETLACTKARDYKIGSRINLERALRLTDRLGGHFVSGHVDQTAILESQKKHAEFIQMDFKNSSEERWNYLIPKGSVAVNGVSLTVNSVAGDYFSVMLIPHTLEHTNLNDLKEGQIVNIEFDLITKIIVQKTREALSHAKTI | soluble |
| MKALVAVSAVAVVALLGVSSAQADPEADPGAGEANYGGPPSSPRLVDHTEWAQWGSLPSLRVYPSQVGRTASRRLGMAAADAAWAEVLALSPEADTAGMRAQFICHWQYAEIRQPGKPSWNLEPWRPVVDDSEMLASGCNPGSPEESF | soluble |
| MSQVQFSHNPLFCIDIIKTYKPDFTPRVAFILGSGLGALADQIENAVAISYEKLPGFPVSTVHGHAGELVLGHLQGVPVVCMKGRGHFYEGRGMTIMTDAIRTFKLLGCELLFCTNAAGSLRPEVGAGSLVALKDHINTMPGTPMVGLNDDRFGERFFSLANAYDAEYRALLQKVAKEEGFPLTEGVFVSYPGPNFETAAEIRMMQIIGGDVVGMSVVPEVISARHCDLKVVAVSAITNMAEGLSDVKLSHAQTLAAAELSKQNFINLICGFLRKIA | soluble |
